Results from US20230218710A1, “METHOD OF TREATING CORONAVIRUS INFECTIONS” (priority 2020, published 2023).

How the values were obtained:
Apelin Receptor (APJ) = target: T1, Apelin Receptor (APJ) (Homo sapiens, UniProt P35414); assay: Phosphorylation of ERK1/2 in cultured cells overexpressing APJ; format: cell-based; details: 5 min, 100 nM Pyr-Apelin-13 = positive control, acetate salts
T1 construct: host or cells: CHO-K1 AGTRL1 Gi cells
T1 sequence (P35414 1-380): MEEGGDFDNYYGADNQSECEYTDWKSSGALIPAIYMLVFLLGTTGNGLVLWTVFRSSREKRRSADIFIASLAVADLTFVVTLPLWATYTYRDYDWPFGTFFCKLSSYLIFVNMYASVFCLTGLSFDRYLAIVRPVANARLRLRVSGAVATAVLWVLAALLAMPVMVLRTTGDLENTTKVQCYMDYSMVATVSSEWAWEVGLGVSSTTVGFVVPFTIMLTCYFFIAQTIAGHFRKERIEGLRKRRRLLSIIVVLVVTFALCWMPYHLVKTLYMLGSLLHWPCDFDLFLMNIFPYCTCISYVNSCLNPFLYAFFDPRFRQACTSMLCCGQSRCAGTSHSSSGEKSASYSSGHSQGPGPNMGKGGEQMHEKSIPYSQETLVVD
Experimental: The effect of the peptides of the current invention on activation of Apelin Receptor (APJ)-mediated signaling can be assessed using an assay to monitor phospho-ERK/phospho-p44/42 MAPK (p-ERK1/2) levels in cultured cells overexpressing Apelin Receptor (APJ) such as CHO-K1, derived from Chinese hamster ovary. Peptides were initially prepared as 100× stocks in H2O. […] Following a 5 min incubation the supernatant was removed and the cells were placed on ice and washed twice with cold HBSS. The HBSS was removed and the cells were immediately lysed in 300 μl/well of 1× lysis buffer (CST 10× Lysis Buffer; Cell Signaling Technology; Danvers, Mass.); lysis buffer was supplemented with 1 mM PMSF (Millipore-Sigma; Saint Louis, Mo.) and Halt Protease/Phosphatase Inhibitor Cocktail (Thermo-Fisher; Waltham, Mass.) prior to use. The samples were then placed on ice for 10 min, wells were scraped and lysates transferred to microfuge tubes. The samples were centrifuged at 12,500 rpm for 10 min at 4° C. and p-ERK1/2 expression in each sample was measured using Phospho-p44/42 MAPK (Thr202/Tyr204) Sandwich ELISA kit according to manufacturer's instructions (Cell Signaling Technology; Danvers, Mass.). Absorbance was measured using a Cytation 3 plate reader at […] (BioTek; Winooski, Vt.). […] Each data point represents the average of duplicate assays.

[1] = test system: LPS-induced acute lung injury mouse model; assay: LPS-induced acute lung injury model in mouse (Example 6); format: in vivo, mice; details: histopathology, 24 h after LPS, 5 mg/kg i.p.
Experimental: The effect of the peptides of the current invention on acute lung injury can be assessed in an LPS-induced acute lung injury mouse model by monitoring outcomes such as lung weight, fluid accumulation, cytokine secretion in blood or bronchoalveolar lavage fluid (BALF), neutrophil infiltration into lung tissues, and assessment of acute lung injury score by histopathology. Acute lung injury was induced in male C57BL/6 mice (6 to 8 weeks old) by intratracheal administration of 40 μL lipopolysaccharide (LPS) (Sigma Aldrich, St. Louis, Mo.) in PBS at 5 mg/kg. Control animals received intratracheal PBS alone. […] Treatments were administered 1 h prior to LPS for animals designated for sacrifice at 4 h after LPS, or at both 1 h prior to and 6 h after LPS for animals designated for sacrifice at 24 h after LPS. At 4 or 24 hours post LPS administration, tissues were harvested. Lungs were weighed, flushed with Hanks Buffer to provide bronchoalveolar lavage fluid (BALF). Lungs were fixed in 10% neutral buffered formalin (NBF) for histopathology. Tissue slides were stained with hematoxylin and eosin (H&E) and evaluated and scored with light microscopy of 5 representative microscopic fields (100× magnification) scoring on a 0-5 scale using standard methods (Matute-Bello G et al 2011. An Official American Thoracic Society Workshop Report: Features and Measurements of Experimental Acute Lung Injury in Animals. Am J Respir Cell Mol Biol 44:725-38). The average score for five fields was calculated for each animal. Levels of pro-inflammatory cytokines in BALF were determined using a meso scale discovery (MSD) system. Data for test peptides were compared to the vehicle control group. Lung weights were normalized to body weight.

With “(PEG12)KRRLLGLVFQSLCG(dA) (KRRLLGLVFQSLCGA; N-terminal PEG12; C-terminal D-alanine; (1)..(1) PEG12; (15)..(15) D-Ala) [SEQ ID NO: 37]” the “pERK1/2 (% of Positive Control)” value (Apelin Receptor (APJ); 0.4 μM peptide) was 9.9%, the “pERK1/2 (% of Positive Control)” value (Apelin Receptor (APJ); 2.0 μM peptide) was 27.3% and the “pERK1/2 (% of Positive Control)” value (Apelin Receptor (APJ); 10 μM peptide) was 54.2%. For the same substance, the “pERK1/2 (% of Positive Control)” value (Apelin Receptor (APJ); 50 μM peptide) was 88.4%, the “Mean (SEM) Alveolar Neutrophil Infiltration Score” value ([1]; 0-5 scale) was 1.50 (0.14) and the “Mean (SEM) Interstitial Neutrophil Infiltration Score” value ([1]; 0-5 scale) was 1.30 (0.11). For the same substance, the “Mean (SEM) Composite Lung Injury Score” value [1] was 2.83 (0.23).
